Test results published in patent US10011659B2, “Compositions and methods for treating cancer resistant to a tyrosine kinase inhibitor (TKI)” (Yeda Research and Development Co. Ltd., priority 2014, dated 2018).
Substitutions are numbered along the chain they refer to. “Also recorded” adds a separate entry of the source.

How the values were obtained:
[1] = tested on: PC9ER-AZDR cells; test: MTT cell survival assay; assay type: cell-based, human; settings: 72 hours, increasing doses
Method: (§1) Cell cultures—The H1975 (ATCC; NCI-H1975_CRL-5908) lung cancer cell line (EGFR mutations: L858R and T790M, ATCC; Rockville, Md.), PC9 and erlotinib-resistant PC9ER lung cancer cells (de1746-750+T790M) (described in 16) were maintained in RPMI-1640 supplemented with 10% FCS (Life technology) and antibiotics. PC9ER cells resistant to AZD-9291, denoted as PC9ER-AZDR cells, were generated by incubating PC9ER cells with AZD-9291 for three months. The dose, initially provided at 0.5 nM, was increased every 4 days per 1.5 fold up to 2.5 μM. NL20 (ATCC; NL20_CRL-2503), an immortalized human bronchial epithelial cell line (ATCC, Rockville, Md.) was maintained in F12K medium as recommended by the ATCC. Co-cultures in a ratio of 1:1 of WI38 (ATCC; CCL-75) and PC9ER or H1975 cells were maintained in DME medium supplemented with sodium pyruvate and fetal calf serum (FCS 5%; Life Technology).
(§2) Cell growth and survival—Cell survival was assessed using the 3-(4,5-dimethylthiazol-2-yl)-2,5 diphenyl tetrazolium bromide (MTT) assay (Sigma Cat#M2003). Cells were plated on 96-wells plates (2,000 cells/well) in triplicates. The medium was changed the following day and cells were treated as indicated. Following 3-4 days of incubation, MTT reagent was added to the cells for one hour followed by dissolving of the formazan crystals in SDS-DMF solution. Absorbance was measured using a microplate reader, Biorad Model 680, at 570 nm.

[2] = tested on: EGFR phosphorylation in PC9ER-AZDR cells; test: Western blot (immunoblot) of EGFR phosphorylation; assay type: cell-based, human; settings: 1 μM, 6 hours
[3] = tested on: H1975 NSCLC cells; test: Tumorigenic growth in-vivo, xenograft; set-up: species or system CD1-nu/nu mice; settings: for tumor growth: mAbs intraperitoneally once every three days from day 11, total 200 μg per mouse per injection
Method: Tumorigenic growth in-vivo—The animal studies were approved by the Weizmann Institute's Review Board (IRB). CD1/nude mice (Harlan Laboratories) were randomized in groups of ten mice and injected subcutaneously in the right flank with H1975 lung cancer cells (3×10^6 per mouse) or with PC9ER lung cancer cells (4×10^6 per mouse). PBS or mAbs were injected intraperitoneally once every three days at a total dose of 200 μg per mouse per injection starting 11 days following cells injection, until tumors reached the size of 1,500 mm^3. In experiments evaluating the effect of the TKI AZD-9291, Vehicle (Vehicle formulation: HPMC 0.5% (sigma Cat#56340), Tween80 0.1% (Sigma Cat #P8074 in water), Erlotinib at a dose of 50 mg/kg per injection, or AZD9291 at a dose of 1 or 5 mg/kg per injection were injected daily intraperitoneally. In one experiment (FIG. 17), mice were treated daily with Erlotinib at a dose of 50 mg/kg per injection until tumors reached a size of 800 mm^3 and only then were treated as indicated. Tumor volume was evaluated twice a week and body weight was evaluated once a week. Mice were euthanized when tumor size reached 1,500 mm^3. Few of the tumors were harvested from mice at the indicated time points and taken for further evaluation. Survival of the tumor bearing mice was recorded and depicted by Kaplan-Meier analysis.

[4] = tested on: PC9ER NSCLC cells; test: Tumorigenic growth in-vivo, xenograft; set-up: species or system CD1-nu/nu mice
Method: CD1/nude mice (Harlan Laboratories) were randomized in groups of ten mice and injected subcutaneously in the right flank with H1975 lung cancer cells (3×10^6 per mouse) or with PC9ER lung cancer cells (4×10^6 per mouse). PBS or mAbs were injected intraperitoneally once every three days at a total dose of 200 μg per mouse per injection starting 11 days following cells injection, until tumors reached the size of 1,500 mm^3. […] Few of the tumors were harvested from mice at the indicated time points and taken for further evaluation. Survival of the tumor bearing mice was recorded and depicted by Kaplan-Meier analysis.

[5] = tested on: PC9ER-AZDR cells; test: Tumorigenic growth in-vivo, xenograft; settings: erlotinib 50 mg/kg/d; AZD9291 1 and 5 mg/kg/d; 3×mAbs 0.2 mg/mouse/injection once every three days
Method: A derivative of PC9ER cells (erlotinib-resistant) was implanted in the flank of immune compromised mice. Vehicle, erlotinib (50 mg/kg/d), low-dose AZD9291 (L; 1 mg/kg/d) and high-dose AZD9291 (H; 5 mg/kg/d) were daily administrated by oral gavage, while the 3×mAbs (triple antibody combination; CTX, TRZ, 33; 0.2 mg/mouse/injection) were administrated once every three days by intraperitoneal injection. Data are means±SEM from 9 mice in each group.
Tumorigenic growth in-vivo—The animal studies were approved by the Weizmann Institute's Review Board (IRB). […] In experiments evaluating the effect of the TKI AZD-9291, Vehicle (Vehicle formulation: HPMC 0.5% (sigma Cat#56340), Tween80 0.1% (Sigma Cat #P8074 in water), Erlotinib at a dose of 50 mg/kg per injection, or AZD9291 at a dose of 1 or 5 mg/kg per injection were injected daily intraperitoneally. In one experiment (FIG. 17), mice were treated daily with Erlotinib at a dose of 50 mg/kg per injection until tumors reached a size of 800 mm^3 and only then were treated as indicated. Tumor volume was evaluated twice a week and body weight was evaluated once a week. Mice were euthanized when tumor size reached 1,500 mm^3. […] Survival of the tumor bearing mice was recorded and depicted by Kaplan-Meier analysis.

[6] = tested on: H1975 cells; test: MTT cell survival assay; assay type: cell-based, human; settings: for ability to inhibit survival of cultured NSCLC cells: 4 days, versus other anti-EGFR, anti-HER2, anti-HER3 mAbs (FIG. 3)
Method: as §1, §2

[7] = tested on: PC9 cells; test: MTT cell survival assay; assay type: cell-based, human; settings: 3 days treatment with increasing doses
Method: as §1, §2

[8] = tested on: PC9ER cells; test: MTT cell survival assay; assay type: cell-based, human; settings: for ability to inhibit survival of cultured NSCLC cells: 4 days, versus other anti-EGFR, anti-HER2, anti-HER3 mAbs (FIG. 3)
Method: as §1, §2

[9] = tested on: EGFR, HER2, HER3 and phosphorylated forms in PC9ER and H1975 cells; test: Western blot after long-term exposure to anti-EGFR mAb; assay type: cell-based, human; settings: resistant cell lines
Method: (§3) Western blot analysis—Cells were grown under specified conditions or treated as indicated. Following the cells were washed twice with cold PBS and scraped into lysis buffer [50 mM Hepes (pH 7.5), 10% glycerol, 150 mM NaCl, 1% Triton X-100, 1 mM EDTA, 1 mM EGTA, 10 mM NaF, 0.1 mM Na3VO4, and a complete protease inhibitor cocktail]. Thereafter, lysates were centrifuged at 14,000 g for 15 minutes at 4° C. The supernatant was used for subsequent procedures. Western blot analyses were conducted following protein separation using gel electrophoresis and transfer to nitrocellulose membranes. Immunoblotting was performed according to the antibody manufacturers' recommendation. Blocking was done using 5% milk in PBST (0.5% Tween20 Sigma Cat#P9416). Antibody binding to membrane blots was detected using horseradish peroxidase—secondary antibodies (Jackson ImmunoResearch Laboratories), followed by treatment with ECL Western blotting detection reagents (GE Healthcare).

[10] = tested on: EGFR, HER2, HER3, AKT, ERK and their phosphorylated forms in PC9ER cells; test: Western blot time course of receptors and downstream pathways; assay type: cell-based, human; settings: 10 μg/ml; for ERK activation / re-activation (phosphorylation): late peak at about 24 hours
Method: as §3

[11] = 3 days treatment with increasing doses, EGFR T790M

With `C=CC(=O)Nc1cc(Nc2nccc(-c3cn(C)c4ccccc34)n2)c(OC)cc1N(C)CCN(C)C` [AZD-9291] the “survival / sensitivity (MTT)” value [1] was “lost sensitivity”, the “survival / sensitivity (MTT)” value ([1]; listed as AZD9291) was “clearly demonstrated resistance” and the EGFR phosphorylation [2] was “remained phosphorylated”. The EGFR phosphorylation ([2]; listed as AZD9291) was “failed to inhibit EGFR phosphorylation”, the body weight gain ([3]; AZD9291 5 mg/kg/day, compared with the triple mAb combination) was “slightly inhibited body weight gain” and the “growth of the erlotinib-resistant human NSCLC tumor” value ([3]; AZD9291 5 mg/kg/day, triple combination of antibodies (CTX+TRZ+33)) was “comparably inhibited growth”. The “tumor relapse in post-treatment phase” value ([4]; erlotinib 1st line to approximately 550 mm^3, 2nd line treatment to day 50, then no treatment, AZD9291 1 or 5 mg/kg/d, 3×mAbs 0.2 mg/mouse/injection) was “relapse of tumors; also recorded: rapid and dramatic relapse” and the “tumor growth / tumor volume” value [5] was “Neither erlotinib nor AZD9291 (at both low and high doses) were able to significantly inhibit tumor growth”.

With `C#Cc1cccc(Nc2ncnc3cc(OCCOC)c(OCCOC)cc23)c1` [erlotinib] the cell survival [6, 11] was “exhibited resistance”, the cell survival [7] was “strongly inhibited” and the cell survival [8, 11] was “exhibited resistance”. The “tumor growth, 1st line phase” value ([4]; erlotinib 50 mg/kg/d versus control group) was “no differences were noted” and the “tumor growth / tumor volume” value [5] was “Neither erlotinib nor AZD9291 (at both low and high doses) were able to significantly inhibit tumor growth”.

B1: mAb 565: anti-EGFR monoclonal antibody, clone 565, CNCM I-4262; VH SEQ ID NO: 1, Vkappa SEQ ID NO: 2 (antibody, V domains shown)
VH: QVQLQQSGAELVKPGASVKLSCKASGYTFTNYWIHWVKQRPGQGLEWIGEIGPINGRSNYIEKFKTKATLTVDKSSSTTYLHLSSLTSEDSAVYYCAREDDYDGKAMDYWGQGTSVTVSS
VL: DIVMTQSHKFXSTSVGDRVSITCKASQNVGTAVAWYQQKPGQSPKLLIYWTSTRHTGVPDRFTGTGSGTEFTLTINNVQSEDLADYFCQQYSGYSFGGGTKLELKR
modifications: not fully specified; anti-EGFR 565 VH amino acid sequence; EGFR 565 kappa amino acid sequence; (11)..(11) Xaa can be any naturally occurring amino acid
In the case of B1, the inhibition of survival ([6]; 10 μg/ml, 4 days of incubation) is reported as “approximately 40%”, the “ability to inhibit survival of cultured NSCLC cells” value (shortened to “ability to inhibit survival”) ([6]; 10 μg/ml) is reported as “superior ability to inhibit survival” and the inhibition of survival ([8]; 10 μg/ml, 4 days of incubation) is reported as “approximately 40%”. The “ability to inhibit survival” value ([8]; 10 μg/ml) was “superior ability to inhibit survival”, the “HER2 and HER3 and their active tyrosine phosphorylated forms” value [9] was “up-regulation” and the “expression levels of EGFR” value [9] was “gradual decrease”. For the same molecule, the “EGFR protein level (degradation)” value [10] was “almost disappeared”, the “ERK activation / re-activation (phosphorylation)” value [10] was “hyper-phosphorylation” and the “phosphorylation of EGFR” value ([10]; listed as anti-EGFR mAb) was “initially reduced; also recorded: strikingly strong re-phosphorylation”. For the same molecule, the tumor growth [3] was “partly inhibited tumor growth”.

B2: mAb 12: anti-HER2 monoclonal antibody, clone N12, CNCM I-4112; VH SEQ ID NO: 3, Vkappa SEQ ID NO: 4 (antibody, V domains shown)
VH: QVQLQQSGAELVRPGDSVNLSCKASGYTFTSYWMYWIKQRPDQGLESIGNIHPNNGGTNYSGKFKNKASLTVDKSSTTAYMQLSSLTSEDSAVYFCARLTGIGMDYWGQGTSVIVSS
VL: B1 VL with X11M, K101R, L104I, R106L
modifications: of anti-HER2 N12 VH amino acid sequence; anti-HER2 N12 Vkappa amino acid sequence
B2 was tested, and the “ability to inhibit survival” value ([6]; 10 μg/ml) was “superior ability to inhibit survival”, the “ability to inhibit survival” value ([8]; 10 μg/ml) was “superior ability to inhibit survival” and the “ERK activation / re-activation (phosphorylation)” value [10] was “induced ERK hyper-phosphorylation”. For the same molecule, the tumor growth [3] was “neither anti-HER2, anti-HER3 nor combined anti-HER2 and anti-HER3 treatment repressed tumor growth”.

B3: mAb 33: anti-HER3 monoclonal antibody, clone NG33; VH SEQ ID NO: 5, Vkappa SEQ ID NO: 6 (antibody, V domains shown)
VH: DVQLQESGPGLVKPSQSLSLTCSVTGYSITSGFYWSWIRQFPGNKLEWMGYIAYDGTSNYNPSLKNRISITRDTSKNQFFLKLKSVTNEDTPTYYCARGGGYYGQLLDYWGQGTSVTVSS
VL: DARMTQSPSSLSASLGDRVTISCRASQDISNYLNWYQQKPDGTVKVLIYNTAKLHSGVPSRFSGSGSGTDYSLTISNLEQEDFATYFCQQGKTLPWTFGGGTKLELK
modifications: anti-HER3 33 VH amino acid sequence; anti-HER3 33 Vkappa amino acid sequence
With B3 the “ability to inhibit survival” value ([6]; 10 μg/ml) was “superior ability to inhibit survival”, the “ability to inhibit survival” value ([8]; 10 μg/ml) was “superior ability to inhibit survival” and the tumor growth [3] was “neither anti-HER2, anti-HER3 nor combined anti-HER2 and anti-HER3 treatment repressed tumor growth”.
